Measured values reported in patent US20230045151A1, “COMPOSITIONS AND METHODS” (MONASH UNIVERSITY, priority 2020, published 2023).

Tested on: CCL20
Experiment: In vitro stimulation of lung cells enriched for airway epithelial cells, chemokine release
Assay type: cell-based, mouse
Details: LPS 10 μg/ml, 24 hours; EGF 100 ng/ml, amphiregulin 500 ng/ml or gefitinib 0.16 μM; lower efficacy than PCS
Description: Mice were euthanized by CO2 inhalation, instilled with a 1.5 ml dispase II (Sigma-Aldrich) intratracheally, followed by intratracheal injection of 0.5 ml 1% low melting point agarose (Sigma-Aldrich). Lungs were then covered with ice for 3 min, removed and placed in a 15 ml falcon tube with 2 ml of dispase II, and incubated for 45 min with gentle agitation. This was followed by mechanical disruption of the lung lobes using forceps in DMEM supplemented with DNAse I (Sigma-Aldrich, 1U/ml), filtration through 70- and 40-μM cell strainers (Falcon®, Corning) and lysis of erythrocytes using red blood cell lysing buffer (BD Biosciences). Lung cells were plated in a flat-bottom 24-well or 96-well plates (Costar) coated with fibronectin (Sigma-Aldrich, 10 μg/ml) at the density of 1 mln or 0.2 mln cells/well, respectively.
5% CO2, after which the supernatant was collected and stored at −20° C. until further use.

B1: amphiregulin: low affinity EGFR ligand (protein, UniProt P15514 101-187, looked up)
Amphiregulin: SVRVEQVVKPPQNKTESENTSDKPKRKKKGGKNGKNRRNRKKKNPCNAEFQNFCIHGECKYIEHLEAVTCKCQQEYFGERCGEKSMK
modifications: Amphiregulin
CCL20 production by lung cells stimulated with LPS: selective reduction
